Variants at the floor of the assay were thinned out.
B1: TPR 5TU (parent)
chain: GGAUCUUCUCGAUCUAACAAAAAAGACAAAUCUGCCACAAAGCUUGAGAGCAUCUUCGGAUGCAGAGGCGGCAGCCUUCGGUGGCGCGAUAGCGCCAACGUUCUCAACUAUGACACGCAAAACGCGUGCUCCGUUGAAUGGAGUUUAUCAUG

Variants of: B1
Experiment: polymerase ribozyme fitness, log enrichment relative to wild type (log ratio); higher = more active; in vitro selection for triplet polymerase activity
Outline: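 For each subunit of a heterodimeric triplet polymerase ribozyme, a mutant library was built by PCR and transcribed, then taken through a single in vitro selection round in triplicate. Selection involved annealing to a biotinylated primer, the partner subunit and triplets, incubation frozen at −7 °C, gel excision of extended constructs, capture on streptavidin beads and RT-PCR. Genotypes were retained after Illumina sequencing of inputs and outputs only with ≥10 input reads and ≥1 read in each output. Fitness is defined as the logarithm of a genotype's enrichment relative to wild-type enrichment, using inverse-variance-weighted averages across replicates, with the logarithm taken to base 2.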

With U6C C95U A98U C99U as the variant, how does the “polymerase ribozyme fitness (log ratio)” value read?
Its value is -2.4.

With C5U C8G A23U U45A G84C as the variant, how does the “polymerase ribozyme fitness (log ratio)” value read?
The value was at most -4.2.

With U6C C10G as the variant, how does the “polymerase ribozyme fitness (log ratio)” value read?
The value was -3.97.

With C5G U78C G84A G136U as the variant, how does the “polymerase ribozyme fitness (log ratio)” value read?
The value was -3.39.

Which “polymerase ribozyme fitness (log ratio)” value does the source give for C5G C32U C96U A122G here?
Its value is -3.38.

For C5U U6G C79G, which “polymerase ribozyme fitness (log ratio)” value is on record?
Its value is at most -4.2.

With U6C C32A A49U G70U U82G C87U C105G as the variant, how does the “polymerase ribozyme fitness (log ratio)” value read?
The value was at most -4.2.

With U6C A21U U55A G58A G86A as the variant, how does the “polymerase ribozyme fitness (log ratio)” value read?
Its value is -3.18.

Which “polymerase ribozyme fitness (log ratio)” value does the source give for U6C A49C U55A U104C U146C here?
The value was at most -4.2.

With U6A C14U A91C A150U as the variant, how does the “polymerase ribozyme fitness (log ratio)” value read?
Its value is at most -4.2.

Which “polymerase ribozyme fitness (log ratio)” value does the source give for U6A C87A A137C here?
The value was at most -4.2.

For U6A C14G C85G U90G A113U, which “polymerase ribozyme fitness (log ratio)” value is on record?
Its value is at most -4.2.

With U6C A60G G117U as the variant, how does the “polymerase ribozyme fitness (log ratio)” value read?
The value was -1.75.

With C5U U7C A21U G86A C131A as the variant, how does the “polymerase ribozyme fitness (log ratio)” value read?
Its value is -4.16.

For C5U G84A, which “polymerase ribozyme fitness (log ratio)” value is on record?
Its value is 0.439.

Which “polymerase ribozyme fitness (log ratio)” value does the source give for U6C A37C C93U here?
The value was -3.12.

Which “polymerase ribozyme fitness (log ratio)” value does the source give for U6A A26C A122C here?
Its value is -2.04.

For U6C U13C C14U G34A G80C A91G, which “polymerase ribozyme fitness (log ratio)” value is on record?
The value was at most -4.2.

With C5G C132U U146G as the variant, how does the “polymerase ribozyme fitness (log ratio)” value read?
The value was -3.69.

Which “polymerase ribozyme fitness (log ratio)” value does the source give for U6C U33G U56C G81C C95U here?
Its value is at most -4.2.

For C5U G84A A142U, which “polymerase ribozyme fitness (log ratio)” value is on record?
The value was -0.976.

Which “polymerase ribozyme fitness (log ratio)” value does the source give for C5U U13C C95U U146G here?
Its value is -1.13.

For C5G U9A C54U U146C, which “polymerase ribozyme fitness (log ratio)” value is on record?
The value was -2.79.

Which “polymerase ribozyme fitness (log ratio)” value does the source give for C5U C54U U82A C95G A147U here?
The value was -1.27.

Which “polymerase ribozyme fitness (log ratio)” value does the source give for U6A C79A G86U A89C C103G here?
Its value is at most -4.2.

With U6C A89G C96U U135C G140U as the variant, how does the “polymerase ribozyme fitness (log ratio)” value read?
The value was at most -4.2.

Which “polymerase ribozyme fitness (log ratio)” value does the source give for C5G C103A G117A here?
The value was -2.88.

Which “polymerase ribozyme fitness (log ratio)” value does the source give for U6A C57G C105U here?
The value was 0.464.

For C5G G94C U101G, which “polymerase ribozyme fitness (log ratio)” value is on record?
The value was -2.68.

With C5U C85G U104C as the variant, how does the “polymerase ribozyme fitness (log ratio)” value read?
Its value is -3.03.

For U6C G83C A91C U145C, which “polymerase ribozyme fitness (log ratio)” value is on record?
The value was at most -4.2.

With C5G U55A C93U C118A as the variant, how does the “polymerase ribozyme fitness (log ratio)” value read?
Its value is -3.5.

With C5G G71U as the variant, how does the “polymerase ribozyme fitness (log ratio)” value read?
Its value is -3.09.

With U6A A22C G50A U61G C79U C85A G143U A147C as the variant, how does the “polymerase ribozyme fitness (log ratio)” value read?
Its value is at most -4.2.

Which “polymerase ribozyme fitness (log ratio)” value does the source give for U6A U61A C93A here?
Its value is at most -4.2.

With C5U A12U A30C G59C C125G G126U as the variant, how does the “polymerase ribozyme fitness (log ratio)” value read?
Its value is at most -4.2.

For C5U A41U G68A G94A C99G U102G A115G C125G, which “polymerase ribozyme fitness (log ratio)” value is on record?
Its value is at most -4.2.

For U6A A22U G59U A73U U109G, which “polymerase ribozyme fitness (log ratio)” value is on record?
The value was -3.52.

For U6A G11U A23C G25A C36A G50C C125U, which “polymerase ribozyme fitness (log ratio)” value is on record?
Its value is at most -4.2.

For U6A G25U, which “polymerase ribozyme fitness (log ratio)” value is on record?
Its value is -1.78.

Which “polymerase ribozyme fitness (log ratio)” value does the source give for C5U A17C G50A U77A C87G A91C A106U U109G here?
Its value is at most -4.2.

Which “polymerase ribozyme fitness (log ratio)” value does the source give for U6A C14A C32U G74A A138C here?
The value was at most -4.2.

For C5G U9C A16C A28G A30U C32G C35A G59U G92U C105U, which “polymerase ribozyme fitness (log ratio)” value is on record?
Its value is at most -4.2.

Which “polymerase ribozyme fitness (log ratio)” value does the source give for U6A G86C here?
Its value is -2.98.

For U6C A17U U33C C51G C57G G83U C95G A98G U127G, which “polymerase ribozyme fitness (log ratio)” value is on record?
Its value is at most -4.2.

Which “polymerase ribozyme fitness (log ratio)” value does the source give for C5U A21U here?
The value was 1.4.

For U6C U61A C85U A97C A120G, which “polymerase ribozyme fitness (log ratio)” value is on record?
Its value is -3.12.

With U6C A47C G81C C87G C96U as the variant, how does the “polymerase ribozyme fitness (log ratio)” value read?
The value was at most -4.2.

For C5G U53A, which “polymerase ribozyme fitness (log ratio)” value is on record?
Its value is -1.8.

Which “polymerase ribozyme fitness (log ratio)” value does the source give for C5G C14G C43G A73G G92U A97C here?
The value was at most -4.2.

With C5U U7A G88U U148C A150C as the variant, how does the “polymerase ribozyme fitness (log ratio)” value read?
The value was at most -4.2.

For U6A C69G G84U U145C, which “polymerase ribozyme fitness (log ratio)” value is on record?
Its value is -1.67.

With C5G C57U as the variant, how does the “polymerase ribozyme fitness (log ratio)” value read?
The value was -0.358.

For U6A C54U G58C C85A U134C, which “polymerase ribozyme fitness (log ratio)” value is on record?
The value was -1.4.

For U6C C87A G88U C96A A120U C123U, which “polymerase ribozyme fitness (log ratio)” value is on record?
Its value is at most -4.2.

For C5U A19C A39G G80C C87U C105G U135A, which “polymerase ribozyme fitness (log ratio)” value is on record?
Its value is at most -4.2.

For C5U U15A A17G C18U G42A U53A U55A A60C G68C C79U A91C A97G, which “polymerase ribozyme fitness (log ratio)” value is on record?
Its value is at most -4.2.

Which “polymerase ribozyme fitness (log ratio)” value does the source give for C5U G84A C95A here?
Its value is 0.351.

With U6A A16C U56A U61A C95U C114U as the variant, how does the “polymerase ribozyme fitness (log ratio)” value read?
The value was -3.64.

Which “polymerase ribozyme fitness (log ratio)” value does the source give for U6C U56C A89C A121U here?
The value was -2.59.

Which “polymerase ribozyme fitness (log ratio)” value does the source give for U6A C51U A52U U56A G83U G84A C114U here?
Its value is at most -4.2.

With U6A A26C A98U G136U as the variant, how does the “polymerase ribozyme fitness (log ratio)” value read?
Its value is -4.09.

With U6A C85U as the variant, how does the “polymerase ribozyme fitness (log ratio)” value read?
The value was -0.519.

For C5G C35U A52C G59C A106G C108A C114U A119U A122U G133U, which “polymerase ribozyme fitness (log ratio)” value is on record?
Its value is at most -4.2.

For U6C C54U C76U, which “polymerase ribozyme fitness (log ratio)” value is on record?
Its value is -2.15.

Which “polymerase ribozyme fitness (log ratio)” value does the source give for U6C C129G here?
The value was -3.13.

For U6A C54A C95G A98U, which “polymerase ribozyme fitness (log ratio)” value is on record?
Its value is -2.26.

With C5U G84A A150C as the variant, how does the “polymerase ribozyme fitness (log ratio)” value read?
Its value is at most -4.2.

Which “polymerase ribozyme fitness (log ratio)” value does the source give for U6A U56A here?
Its value is -0.431.

Which “polymerase ribozyme fitness (log ratio)” value does the source give for U6A G11A A64C C72U C87U A120G C149A here?
Its value is at most -4.2.

Which “polymerase ribozyme fitness (log ratio)” value does the source give for C5G C14G C96A here?
The value was -2.31.

For C5G C96A G117A, which “polymerase ribozyme fitness (log ratio)” value is on record?
The value was -0.406.

Which “polymerase ribozyme fitness (log ratio)” value does the source give for C5U A28U C51G A52C G67A G94C here?
The value was at most -4.2.

With U6A G80C G94A as the variant, how does the “polymerase ribozyme fitness (log ratio)” value read?
The value was at most -4.2.

With C5U A28C A64U G84A as the variant, how does the “polymerase ribozyme fitness (log ratio)” value read?
Its value is at most -4.2.

Which “polymerase ribozyme fitness (log ratio)” value does the source give for C5G C54U U56A C99U here?
Its value is -1.99.

For C5U C54U U82A C95G A150U, which “polymerase ribozyme fitness (log ratio)” value is on record?
The value was -1.62.

For U6G A16C A22U C51U C76U C85A C118U, which “polymerase ribozyme fitness (log ratio)” value is on record?
Its value is -3.97.

With C5G G46A G92C as the variant, how does the “polymerase ribozyme fitness (log ratio)” value read?
The value was -4.13.

Which “polymerase ribozyme fitness (log ratio)” value does the source give for C5G U7C A16C C27U C32G A49C U53G C125A A137U G143C here?
The value was at most -4.2.

With U6A C35A C63U C69U C76A G83C as the variant, how does the “polymerase ribozyme fitness (log ratio)” value read?
Its value is at most -4.2.

With U6A U56A U82G C103U as the variant, how does the “polymerase ribozyme fitness (log ratio)” value read?
The value was -1.06.

With U6G A19G A30U A119G as the variant, how does the “polymerase ribozyme fitness (log ratio)” value read?
The value was at most -4.2.

— the RNAGym collection of RNA variant scans (doi:10.1073/pnas.2313332121)
